Experiment [1] concerns the target T1, human BTLA on cells (stably transfected 293c18 cells; human peripheral blood T and B cells) (human, UniProt Q7Z6A9 31-289).
T1 construct: whole, on cells; the cells are named under assay; also called cell surface BTLA; full-length human BTLA
Description: flow cytometry (MFI DyL650) on gated CD8+ T cells of human PBMC, DyLight 650-labelled antibody, three-parameter fit [middle panel (Naive CD8+ T cells]. As for the experimental part:
Human peripheral blood mononuclear cells (PBMCs) were isolated by Histopaque (Sigma-Aldrich) density-gradient centrifugation of normal donor blood obtained from the San Diego Blood Bank (San Diego, CA). PBMCs were washed and incubated at 2×10⁷ cells/ml in FACS buffer (PBS, 1% BSA, 0.02% sodium azide) with Human BD Fc Block (2.5 μg/1×10⁶ cells, BD Biosciences) and LIVE/DEAD® Fixable Yellow Dead Cell Stain (30 μl, ThermoFisher Scientific) for 10 minutes on ice. Cells were washed once in FACS buffer, resuspended in FACS buffer at 1×10⁷ cells/ml and the following phenotyping antibodies added: Alexa Fluor 488-anti-human CD3E clone SK7, Brilliant Violet 421-anti-human CD4 clone OKT4, Brilliant Violet 785-anti-human CD8 clone SK1, and Brilliant Violet 570-anti-human CD20 clone 2H7 (50 μl each; all from BioLegend, Inc.). […] Samples were washed twice in FACS buffer, resuspended in 150 μl/well FACS buffer, and analyzed for fluorescence on a NovoCyte Flow Cytometer (ACEA Biosciences, Inc.). Data were analyzed using NovoExpress Software (ACEA Biosciences, Inc.). Median fluorescence intensities of anti-BTLA or isotype staining on gated CD4⁺ T cells (FIG. 4), CD8⁺ T cells (FIG. 4), or CD20⁺ B cells (FIG. 4) were graphed and curves fit with log(agonist) vs. response (three parameters) least squares fit for EC₅₀ calculation in GraphPad Prism (GraphPad Software, Inc.).
(A flow cytometer gives signals particle by particle.)

The target of experiment [2] is T1, human BTLA on cells (stably transfected …). In words: competition flow cytometry on 293c18 cells with human BTLA; increase of the binding of DyLight 650-HVEM-Fc (100 nM) with the antibody concentration [panel A]. On the procedure:
293c18 cells, clone 1E4 stably expressing human BTLA were harvested with Accutase solution (Millipore Sigma/Sigma-Aldrich) and washed once with PBS, 1% BSA. Cells were plated at 2×10⁵ /well in U-bottom 96-well plates and placed on ice. Purified antibodies at twice the indicated concentrations were serially diluted 3-fold in FACS buffer (PBS, 1% BSA, 0.02% sodium azide). Antibodies tested were human IgG4 isotype control antibody specific for hen egg lysozyme, a reference BTLA IgG4 antagonist antibody, and 6G3 IgG4 (APE10840.06). Trimeric HVEM/LIGHT complexes were pre-formed by mixing equimolar (60 nM each) amounts of DyLight 650-HVEM human IgG1 Fc and trimeric LIGHT-foldon-his and pre-incubating for 15 minutes at room temperature. Either DyLight 650-HVEM-Fc (final concentration 100 nM; FIG. 6A) or pre-formed DyLight 650-HVEM/LIGHT complexes (final concentration of HVEM/LIGHT, 30 nM each; FIG. 6B) were added to the diluted antibodies (final concentrations of antibodies as indicated) and incubated for 15 minutes on ice. […] Cells were washed once, resuspended in FACS buffer and analyzed for fluorescence on a BD FACSArray (BD Biosciences). Median fluorescence intensities (MFI) were graphed in GraphPad Prism (GraphPad Software, Inc.) and curves fit with log(agonist) vs. response (three parameters) least squares fit. […]

B1: 6G3 IgG4 anti-BTLA antibody (APE10840 / APE12839 / APE13308) (antibody, V domains shown)
VH: QVQLVQSGAEVKKPGSSVKVSCKASGYVFSTSWMNWVRQAPGQGLEWMGRIYPGDADTNYVGKFKGRVTITADKSTTTAYMELSSLRSEDTAVYFCAKSGTFNFGNYRWYFDVWGKGTTVTVSS
VL: AIQLTQSPSSLSASVGDRVTITCRVSENIYSHLAWYQQKPGKAPKLLIYAATNLALGVPSRFSGSGSGTDYTLTISSLQPEDFATYYCQLFWGPPLTFGGGTKVEIKR
notes: Humanized antibody from a mouse hybridoma, tested as human IgG4 (detected with anti-human kappa); Some assays used labelled lots (DyLight 650, AF647, biotin, DyL488); also called 6G3 antibody; APE10840.03
Consider B1, for which the response in experiment [1] was half-maximal at 3.23 nM (EC50). Moreover, the EC50 (read off the curve) – broadly, the midpoint of the concentration-response curve – in experiment [2] is ~0.7 nM.
